This note sets out measurements from paper PMC8218332 (Cell, 2021).

This assay addresses T1, His-tagged SARS-CoV-2 RBD T478K (SARS-CoV-2, Wuhan-Hu-1 RBD with T478K, T478K).
T1 construct: not shown: His6, N-terminal, kept
Briefly: BLI. The following applies: both partners purified.

B1: mAb 222 (antibody, V domains shown)
VH: EVQLVESGGGLIQPGGSLRLSCAASGLTVSSNYMSWVRQAPGKGLEWVSVIYSGGSTFYADSVKGRFTISRDNSKNTLYLQMNSLGAEDTAVYYCARGEGSPGNWFDPWGQGTLVTVSS
VL: DVVMTQSPGTLSLSPGERATLSCRASQSVPSSYLAWYQQKPGQAPRLLIYGASTRATGIPDRFSGSGSGTDFTLTISRLEPEDFAVYYCQHYDTSPRFGGGTKVDIK
notes: copies: 2 + 2
B1 yielded a Kd of 0.2 nM.

B2: REGN10987 (antibody, V domains shown)
VH: QVQLVESGGGVVQPGRSLRLSCAASGFTFSNYAMYWVRQAPGKGLEWVAVISYDGSNKYYADSVKGRFTISRDNSKNTLYLQMNSLRTEDTAVYYCASGSDYGDYLLVYWGQGTLVTVSS
VL: QSALTQPASVSGSPGQSITISCTGTSSDVGGYNYVSWYQQHPGKAPKLMIYDVSKRPSGVSNRFSGSKSGNTASLTISGLQSEDEADYYCNSLTSISTWVFGGGTKLTVL
notes: source: provided by AstraZeneca; copies: 2 + 2
As for B2, binding was characterised by a dissociation constant (Kd) of 0.35 nM.

B3: mAb 316 (antibody, V domains shown)
VH: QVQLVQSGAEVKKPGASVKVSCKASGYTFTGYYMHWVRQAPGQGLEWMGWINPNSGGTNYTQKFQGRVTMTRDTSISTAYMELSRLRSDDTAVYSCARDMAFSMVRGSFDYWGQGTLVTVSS
VL: QAVLTQPPSASGSPGQSVTISCTGTSSDVGGYNYVSWYQQHPGKAPKLMIYEVSKRPSGVPDRFSGSKSGNTASLTVSGLQAEDEADYYCSSYAGSNHWVFGGGTKLTVL
notes: copies: 2 + 2
In the case of B3, the dissociation constant (Kd) was found to be 0.69 nM.

B4: mAb 278 (antibody, V domains shown)
VH: QVQLVQSGAEVKKPGASVKVSCKASGYIFIRYGISWVRQAPGQGLEWMGWISANNGYTNYAQKLQGRVTMTTDTSTSTAYMELRSLRSDDTAVYYCARDGGILTGYLDYFDHWGQGTLVTVSS
VL: DIQMTQSPSSLSASVGDRLTITCRASQSIASYLNWYQQKPGKAPKLLIYAASSLQSGVPSRFSGSGSGTDFTLTISSLQPEDFATYHCQQSYSTLGITFGPGTKVDIK
notes: copies: 2 + 2
For B4, the dissociation constant Kd was found to be 1.5 nM.

B5: mAb 88 (antibody, V domains shown)
VH: QLQLQESGPGLVKPSQTLSLTCTVSGGSISSGSYNWTWIRQPAGKGLEWIGRIYNSGSTNYNPSLKSRVTISVDTSKNQLSLKVRSVTAADTAVYYCARHCSGGTCYPKYYYGMDVWGQGTTVTVSS
VL: QSALTQPPSVSEAPRQRVTISCSGSSSNIGNNAVNWYQQFPGKAPKLLIYYDDLLPSGVSDRFSGSKSGTSASLAISGVQSEDEADYYCAAWDDSLNVVVFGGGTKLTVL
notes: copies: 2 + 2
B5: the dissociation constant (Kd) worked out at 2.4 nM.

Usually Kd stands for the free concentration of one partner at which half of the binding sites on the other are occupied at equilibrium, for simple one-to-one binding.
